Data reported in the supplement of paper PMC10201428.
± gives the standard deviation of the averaged measurements.

B1: library; a variant is named by its letters at N, in order (parent)
chain: AATGTTGTTGATGCAACCATAAAGTGATATTTAATAATTATTTATAATCAGCAACTTAACCACAAAACAACCATATATTGATATNTCACAAAACAACCATAANTTGATATTTTTGTGAATCGAGTATTTCAGCAAAACTACTGCAGTAAGAA

Experiments:
[1] = variants of: B1; test: relative integration efficiency (T-LR orientation) vs wild-type transposon end (log2 (normalized fold change)); transposon end mutated: left end; higher = more efficient transposition; details: with VchCAST RNA-guided transposition machinery (E. coli BL21(DE3) host, lacZ target)
How it was run: (§1)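 In E. coli BL21(DE3), a T7-driven effector plasmid was paired with a pUC57 mini-transposon donor containing 1549 left-end or 1849 right-end barcoded transposon variants. Cells grew on plates with 0.1 mM IPTG at 37°C for 18 h. Relative integration efficiency was derived from Illumina reads of genomic integration junctions against input plasmids, as a log-transformed output/input barcode fold change normalised to reference barcodes.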

[2] = variants of: B1; test: relative integration efficiency (T-RL orientation) vs wild-type transposon end (log2 (normalized fold change)); transposon end mutated: left end; higher = more efficient transposition; details: with VchCAST RNA-guided transposition machinery (E. coli BL21(DE3) host, lacZ target)
How it was run: as §1

## CG A101T
[1]
  relative integration efficiency (log2): -0.501 ± 0.29
[2]
  relative integration efficiency (log2): -0.599 ± 0.23

## CG G115T T116G G117T A118C
[1]
  relative integration efficiency (log2): -0.131 ± 0.19
[2]
  relative integration efficiency (log2): -0.00966 ± 0.025

## CG A15T A69T A95T
[1]
  relative integration efficiency (log2): -1.55 ± 0.76
[2]
  relative integration efficiency (log2): -1.31 ± 0.47

## CG G4T
[1]
  relative integration efficiency (log2): 0.222 ± 0.16
[2]
  relative integration efficiency (log2): -0.172 ± 0.075

## CG T76A A77T T78A T79A
[1]
  relative integration efficiency (log2): -0.702 ± 1.2
[2]
  relative integration efficiency (log2): -0.611 ± 0.38

## CG C18A C72A C98A
[1]
  relative integration efficiency (log2): -1.73 ± 0.24
[2]
  relative integration efficiency (log2): -1.91 ± 0.81

## CG T28G
[1]
  relative integration efficiency (log2): -0.845 ± 0.19
[2]
  relative integration efficiency (log2): -0.536 ± 0.28

## CG A44G
[1]
  relative integration efficiency (log2): 0.0745 ± 0.29
[2]
  relative integration efficiency (log2): 0.155 ± 0.065

## TG A22T G24T T31C A33C T76A T78G C87A
[1]
  relative integration efficiency (log2): 1.14 ± 0.4
[2]
  relative integration efficiency (log2): 0.463 ± 0.49

## CG A16T C17G
[1]
  relative integration efficiency (log2): -0.34 ± 0.47
[2]
  relative integration efficiency (log2): -0.0955 ± 0.095

## CA A16C G24T T32G A33C T104A T110A T113A
[1]
  relative integration efficiency (log2): -0.927 ± 0.11
[2]
  relative integration efficiency (log2): -0.976 ± 0.39

## CG T43C
[1]
  relative integration efficiency (log2): -0.00723 ± 0.047
[2]
  relative integration efficiency (log2): -0.241 ± 0.11

## CG A93T C94G A95T A96T
[1]
  relative integration efficiency (log2): -2.14 ± 0.41
[2]
  relative integration efficiency (log2): -1.82 ± 0.58

## CG A23C G24T
[1]
  relative integration efficiency (log2): -0.153 ± 0.042
[2]
  relative integration efficiency (log2): -0.106 ± 0.064

## CG C55G
[1]
  relative integration efficiency (log2): 0.245 ± 0.15
[2]
  relative integration efficiency (log2): 0.177 ± 0.069

## CG A19G
[1]
  relative integration efficiency (log2): -0.219 ± 0.077
[2]
  relative integration efficiency (log2): -0.352 ± 0.074

## CG A19C
[1]
  relative integration efficiency (log2): -1.53 ± 1
[2]
  relative integration efficiency (log2): -1.49 ± 0.49

## TA A22T G24T T31C A33C T76A T78A T84A C87A A96C T110A T113A
[1]
  relative integration efficiency (log2): -0.768 ± 1.2
[2]
  relative integration efficiency (log2): -0.365 ± 0.32

## CG T48G C49A A50C G51T
[1]
  relative integration efficiency (log2): -3.52 ± 2.9
[2]
  relative integration efficiency (log2): -1.55 ± 0.54

## CG T76G
[1]
  relative integration efficiency (log2): -0.699 ± 0.91
[2]
  relative integration efficiency (log2): -0.903 ± 0.5

## CG G117T A118C
[1]
  relative integration efficiency (log2): 0.251 ± 0.35
[2]
  relative integration efficiency (log2): 0.0866 ± 0.029

## CG G124T T125G
[1]
  relative integration efficiency (log2): -0.377 ± 0.42
[2]
  relative integration efficiency (log2): -0.329 ± 0.048

## CG G26A
[1]
  relative integration efficiency (log2): -0.184 ± 0.65
[2]
  relative integration efficiency (log2): -0.427 ± 0.47

## CG G26C
[1]
  relative integration efficiency (log2): -1.96 ± 1.7
[2]
  relative integration efficiency (log2): -1.36 ± 0.65

## CG T105G
[1]
  relative integration efficiency (log2): -0.747 ± 0.68
[2]
  relative integration efficiency (log2): -1.17 ± 0.51

## CG A36C
[1]
  relative integration efficiency (log2): -0.699 ± 0.7
[2]
  relative integration efficiency (log2): -0.216 ± 0.15

## CG A53C A54C C55A T56G
[1]
  relative integration efficiency (log2): -0.0934 ± 0.06
[2]
  relative integration efficiency (log2): -0.592 ± 0.35

## CA A16C G24T T32G A33C T104G T113A
[1]
  relative integration efficiency (log2): -0.783 ± 0.61
[2]
  relative integration efficiency (log2): -0.765 ± 0.33

## GG T86A C87G A88T
[1]
  relative integration efficiency (log2): 0.143 ± 0.77
[2]
  relative integration efficiency (log2): -0.152 ± 0.19

## CG A99C T100G
[1]
  relative integration efficiency (log2): -1.66 ± 1.1
[2]
  relative integration efficiency (log2): -1.87 ± 0.76

## CG A34C T35G T39C T41A T45A G51T C52A A53G A54G C60T A62G C63A
[1]
  relative integration efficiency (log2): 0.531 ± 0.51
[2]
  relative integration efficiency (log2): -0.0678 ± 0.088

## CG A96C
[1]
  relative integration efficiency (log2): 0.848 ± 0.0087
[2]
  relative integration efficiency (log2): 0.7239 ± 0.0024

## TA A22T G24T T31C A33C T76A T78A T84A C87A T104A T110A T113A
[1]
  relative integration efficiency (log2): -0.396 ± 0.056
[2]
  relative integration efficiency (log2): -0.175 ± 0.33

## CG T112G
[1]
  relative integration efficiency (log2): -0.249 ± 0.13
[2]
  relative integration efficiency (log2): -0.63 ± 0.13

## CG T82A A83T
[1]
  relative integration efficiency (log2): -0.417 ± 0.84
[2]
  relative integration efficiency (log2): -0.851 ± 0.49

## CG A23T G24C T25A G26C
[1]
  relative integration efficiency (log2): -2.69 ± 1.5
[2]
  relative integration efficiency (log2): -2.6 ± 0.78

## CG T30A T31C T32A
[1]
  relative integration efficiency (log2): -0.303 ± 0.45
[2]
  relative integration efficiency (log2): -0.29 ± 0.22

## CG A70T
[1]
  relative integration efficiency (log2): -0.297 ± 0.68
[2]
  relative integration efficiency (log2): -0.12 ± 0.26

## CT
[1]
  relative integration efficiency (log2): 0.219 ± 0.67
[2]
  relative integration efficiency (log2): -0.0852 ± 0.034

## AG A83C T84G T86G
[1]
  relative integration efficiency (log2): -1.31 ± 0.49
[2]
  relative integration efficiency (log2): -0.668 ± 0.067

## CG T12A G13A T30A T31C T32A
[1]
  relative integration efficiency (log2): -1.04 ± 0.35
[2]
  relative integration efficiency (log2): -0.578 ± 0.26

## CG C52G A53T
[1]
  relative integration efficiency (log2): 0.253 ± 0.28
[2]
  relative integration efficiency (log2): 0.138 ± 0.048

## CG C61G
[1]
  relative integration efficiency (log2): -0.0835 ± 0.46
[2]
  relative integration efficiency (log2): -0.191 ± 0.019

## CG C61T
[1]
  relative integration efficiency (log2): 0.151 ± 0.41
[2]
  relative integration efficiency (log2): -0.122 ± 0.029

## CG G24C T25A G26C A27T
[1]
  relative integration efficiency (log2): -2.36 ± 0.61
[2]
  relative integration efficiency (log2): -2.38 ± 0.98

## CG A69G
[1]
  relative integration efficiency (log2): -0.41 ± 0.78
[2]
  relative integration efficiency (log2): -0.422 ± 0.41

## TG A70C T76A T84A C87A
[1]
  relative integration efficiency (log2): 0.577 ± 0.018
[2]
  relative integration efficiency (log2): -0.0929 ± 0.15

## CA A96C T112G T113C
[1]
  relative integration efficiency (log2): -0.564 ± 0.17
[2]
  relative integration efficiency (log2): -0.326 ± 0.1

## TA A16C G24T T30A A70C T76A T84A C87A T104A T110A T113A
[1]
  relative integration efficiency (log2): -0.0907 ± 0.0099
[2]
  relative integration efficiency (log2): 0.0016 ± 0.4

## CA G24A T30A T104A T110A T113A
[1]
  relative integration efficiency (log2): -0.0948 ± 0.19
[2]
  relative integration efficiency (log2): -0.387 ± 0.2

## CG T32G A33C
[1]
  relative integration efficiency (log2): 0.439 ± 0.1
[2]
  relative integration efficiency (log2): 0.352 ± 0.14

## CG A109C T110G T111G T112G
[1]
  relative integration efficiency (log2): -1.67 ± 0.36
[2]
  relative integration efficiency (log2): -1.4 ± 0.41

## CG A95T A96T
[1]
  relative integration efficiency (log2): -0.891 ± 0.57
[2]
  relative integration efficiency (log2): -0.379 ± 0.28

## CG T6G G7T T8G T9G
[1]
  relative integration efficiency (log2): < -10
[2]
  relative integration efficiency (log2): -7.37 ± 0.95

## CG T100A A101T
[1]
  relative integration efficiency (log2): -0.623 ± 0.79
[2]
  relative integration efficiency (log2): -0.364 ± 0.49

## CG T45A A46T A47T T48A
[1]
  relative integration efficiency (log2): 0.244 ± 0.78
[2]
  relative integration efficiency (log2): 0.0806 ± 0.061

## CG T76G A77C
[1]
  relative integration efficiency (log2): -0.497 ± 0.94
[2]
  relative integration efficiency (log2): -0.785 ± 0.46

## CG T56C
[1]
  relative integration efficiency (log2): -0.129 ± 0.16
[2]
  relative integration efficiency (log2): -0.2 ± 0.061
